Test results published in US20220202905A1, “COMPOSITION FOR PREVENTING OR TREATING NEUROTROPHIC KERATITIS WHICH CONTAINS PACAP PEPTIDE OR STABILIZED PACAP PEPTIDE” (SENJU PHARMACEUTICAL CO., LTD., priority 2019, published 2022).
Square brackets hold non-standard residues; d marks the D form. Peptide text beside a SMILES is read from it. * marks the point of attachment. Ala(1H-tetrazol-5-yl) = N[C@@H](Cc1nnn[nH]1)C(=O)O; Nle = CCCC[C@H](N)C(=O)O; Ms = CS(=O)(=O)*

T1: VPAC1 receptor (UniProt P32241 31-457, limits assumed)
T1 sequence (looked up): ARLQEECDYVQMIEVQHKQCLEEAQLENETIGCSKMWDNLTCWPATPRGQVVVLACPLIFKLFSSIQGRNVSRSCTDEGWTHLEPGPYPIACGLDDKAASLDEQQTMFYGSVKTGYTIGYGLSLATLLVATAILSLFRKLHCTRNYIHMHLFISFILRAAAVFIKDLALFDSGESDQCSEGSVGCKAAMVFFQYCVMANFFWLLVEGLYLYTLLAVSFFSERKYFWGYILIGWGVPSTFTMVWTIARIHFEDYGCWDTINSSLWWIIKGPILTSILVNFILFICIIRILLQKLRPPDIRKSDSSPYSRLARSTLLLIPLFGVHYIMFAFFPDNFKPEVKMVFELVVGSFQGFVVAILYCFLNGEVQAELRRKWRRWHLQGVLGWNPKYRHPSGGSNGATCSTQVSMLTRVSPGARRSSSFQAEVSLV

T2: PAC1 receptor (UniProt P41586 21-468, limits assumed)
T2 sequence (looked up): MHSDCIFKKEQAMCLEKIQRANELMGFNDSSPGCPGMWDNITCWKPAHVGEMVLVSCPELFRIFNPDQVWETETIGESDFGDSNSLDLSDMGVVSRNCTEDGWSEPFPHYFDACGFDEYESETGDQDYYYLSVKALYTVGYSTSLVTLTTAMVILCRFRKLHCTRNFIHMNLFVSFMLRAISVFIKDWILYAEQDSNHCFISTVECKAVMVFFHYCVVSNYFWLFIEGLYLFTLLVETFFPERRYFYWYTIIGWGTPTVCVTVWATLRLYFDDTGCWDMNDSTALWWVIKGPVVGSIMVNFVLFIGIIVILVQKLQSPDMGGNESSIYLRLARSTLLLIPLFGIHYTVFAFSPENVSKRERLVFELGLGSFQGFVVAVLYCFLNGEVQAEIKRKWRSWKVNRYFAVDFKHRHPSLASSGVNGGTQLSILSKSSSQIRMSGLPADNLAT


Key:
[1] = Peptide stability test, phosphate buffer (pH 7.0), 40° C. storage, HPLC remaining rate; format: physicochemical; settings: for remaining rate after correction for water, 40° C., 1 month preservation / remaining rate after correction for water, 40° C., 2 months preservation: 100 μM in phosphate buffer pH 7.0; for stability in aqueous solution (in words), 40° C. storage: phosphate buffer pH 7.0, 1 or 2 months
Protocol: Peptides 1 and 3 to 5 synthesized in Example 2 were weighed and dissolved in phosphate buffer (pH 7.0) to prepare 1.0 mM peptide solutions. The 1.0 mM peptide solutions were then diluted with phosphate buffer to 100 μM. After filtering with Chromatdisk (product of Merck Millipore, Millex-GV, 0.22 μm), each filtrate was dispensed into an LC vial (Waters Deactivated […] prepared peptide solutions were incubated for one month or 2 months in a 40° C. thermostatic bath to obtain stored samples. A simultaneously prepared sample among the peptide solutions that was not stored was used as a standard sample (initial sample). The standard sample and the stored samples were stored at -30° C. until sample analysis. Using the total weight of the aqueous peptide solution and storage vessel as the specimen weight, measurements were recorded as the specimen weights before storage and the specimen weights after storage under different storage conditions. The empty weight of the storage vessel was also measured, and the moisture permeability was determined by the following formula. After stirring the standard sample and the stored samples with a vortex mixer, each peptide solution was transferred to an HPLC vial (Deactivated Qsert vial by Waters Co.). Reverse-phase HPLC (HPLC system: Prominence by Shimadzu Corp.) was conducted under the conditions shown in Table 3 below for analysis of the peptide solutions, and chromatograms were obtained. Guard column: XSelect CSH C18 by Waters Co., 5 μm, 4.6×20 mm Guard Cartridge Detection wavelength: 220 nm Mobile phase A: 0.1% formic acid aqueous solution Mobile phase B: 0.1% acetonitrile formate solution Measuring time: 30 minutes Measuring sample injection rate: 50 μL Flow rate: 1.0 mL/min Sample cooler: 4° C. Column temperature: 40° C. Mobile phase delivery: The mixing ratio of mobile phase A and mobile phase B was varied as shown in Table 3 for linear concentration gradient control. The peak area value for the peptide in the chromatogram was calculated, and the remaining rate (remaining rate before correction for water) was calculated using formula (2). The remaining rate after correction for water was also calculated from the remaining rate before correction for water using formula (3), taking into account the moisture permeability of the vessel. Peptides 10 and 11 synthesized in Example 2 were weighed and dissolved in phosphate buffer (pH 7.0) to prepare 1.0 mM peptide solutions. Each solution was filtered with a Chromatdisk (product of Merck Millipore. Millex-GV, 0.22 μm). Each filtrate was diluted to 100 μM with phosphate buffer (pH 7.0) and dispensed into a tube (Protein LoBind Tube by Eppendorf Co.). The prepared peptide solutions were incubated for one month or 2 months in a 40° C. thermostatic bath to obtain stored samples. A simultaneously prepared sample among the peptide solutions that was not stored was used as a standard sample (initial sample). The standard sample and the stored samples were stored at -30° C. until sample analysis. The remaining rate after correction for water for each peptide among the stored samples was measured in the same manner as Example 4, and the results are shown in Table 8.

VPAC1 receptor = molecular target: T1, VPAC1 receptor; test: cell-based or functional assay
PAC1 receptor = molecular target: T2, PAC1 receptor; test: cell-based or functional assay
[2] = Table 8, measured as in Example 4

| Molecule | EC50 (VPAC1R), cAMP inducing effect (VPAC1 receptor) [nM] | EC50 (PAC1R), cAMP inducing effect (PAC1 receptor) [nM] | also measured |
| --- | --- | --- | --- |
| CC[C@H](C)[C@H](NC(=O)CNC(=O)[C@H](Cc1nnn[nH]1)NC(=O)[C@H](CO)NC(=O)[C@@H](N)Cc1c[nH]cn1)C(=O)N[C@@H](Cc1ccccc1)C(=O)N[C@H](C(=O)N[C@@H](Cc1nnn[nH]1)C(=O)N[C@@H](CO)C(=O)N[C@@H](Cc1ccc(O)cc1)C(=O)N[C@@H](CO)C(=O)N[C@@H](CCCNC(=N)N)C(=O)N[C@@H](Cc1ccc(O)cc1)C(=O)N[C@@H](CCCNC(=N)N)C(=O)N[C@@H](CCCCN)C(=O)N[C@@H](CCC(N)=O)C(=O)N[C@@H](CCSC)C(=O)N[C@@H](C)C(=O)N[C@H](C(=O)N[C@@H](CCCCN)C(=O)N[C@@H](CCCCN)C(=O)N[C@@H](Cc1ccc(O)cc1)C(=O)N[C@@H](CC(C)C)C(=O)N[C@@H](C)C(=O)N[C@@H](C)C(=O)N[C@H](C(=O)N[C@@H](CC(C)C)C(N)=O)C(C)C)C(C)C)[C@@H](C)O [Peptide 5] (H-HS[Ala(1H-tetrazol-5-yl)]GIFT[Ala(1H-tetrazol-5-yl)]SYSRYRKQMAVKKYLAAVL-NH2) | – | – | remaining rate after correction for water, 40° C., 1 month preservation ([1]; Table 4, HPLC conditions 1): 94.7%; remaining rate after correction for water, 40° C., 2 months preservation ([1]; Table 4, HPLC conditions 1): 85.6%; stability in aqueous solution (in words), 40° C. storage [1]: further increased stability over peptide 3 and peptide 4 |
| CCCC[C@H](NC(=O)[C@H](CCC(N)=O)NC(=O)[C@H](CCCCN)NC(=O)[C@H](CCCNC(=N)N)NC(=O)[C@H](Cc1ccc(O)cc1)NC(=O)[C@H](CCCNC(=N)N)NC(=O)[C@H](CO)NC(=O)[C@H](Cc1ccc(O)cc1)NC(=O)[C@H](CO)NC(=O)[C@H](Cc1nnn[nH]1)NC(=O)[C@@H](NC(=O)[C@H](Cc1ccccc1)NC(=O)[C@@H](NC(=O)CNC(=O)[C@H](Cc1nnn[nH]1)NC(=O)[C@H](CO)NC(=O)[C@H](Cc1c[nH]cn1)NS(C)(=O)=O)[C@@H](C)CC)[C@@H](C)O)C(=O)N[C@@H](C)C(=O)N[C@H](C(=O)N[C@@H](CCCCN)C(=O)N[C@@H](CCCCN)C(=O)N[C@@H](Cc1ccc(O)cc1)C(=O)N[C@@H](CC(C)C)C(=O)N[C@@H](C)C(=O)N[C@@H](C)C(=O)N[C@H](C(=O)N[C@@H](CC(C)C)C(N)=O)C(C)C)C(C)C [Peptide 11] (Ms-HS[Ala(1H-tetrazol-5-yl)]GIFT[Ala(1H-tetrazol-5-yl)]SYSRYRKQ[Nle]AVKKYLAAVL-NH2) | – | – | remaining rate after correction for water, 40° C., 1 month preservation [1, 2]: 94.2%; remaining rate after correction for water, 40° C., 2 months preservation [1, 2]: 88.8%; stability in aqueous solution (in words), 40° C. storage [1]: stabilized to the same degree |
| Ac-HS[Ala(1H-tetrazol-5-yl)]AIFT[Ala(1H-tetrazol-5-yl)]SYSRYRKQAAVKKYLAAVL-NH2 (SMILES CC[C@H](C)[C@H](NC(=O)[C@H](C)NC(=O)[C@H](Cc1nnn[nH]1)NC(=O)[C@H](CO)NC(=O)[C@H](Cc1c[nH]cn1)NC(C)=O)C(=O)N[C@@H](Cc1ccccc1)C(=O)N[C@H](C(=O)N[C@@H](Cc1nnn[nH]1)C(=O)N[C@@H](CO)C(=O)N[C@@H](Cc1ccc(O)cc1)C(=O)N[C@@H](CO)C(=O)N[C@@H](CCCNC(=N)N)C(=O)N[C@@H](Cc1ccc(O)cc1)C(=O)N[C@@H](CCCNC(=N)N)C(=O)N[C@@H](CCCCN)C(=O)N[C@@H](CCC(N)=O)C(=O)N[C@@H](C)C(=O)N[C@@H](C)C(=O)N[C@H](C(=O)N[C@@H](CCCCN)C(=O)N[C@@H](CCCCN)C(=O)N[C@@H](Cc1ccc(O)cc1)C(=O)N[C@@H](CC(C)C)C(=O)N[C@@H](C)C(=O)N[C@@H](C)C(=O)N[C@H](C(=O)N[C@@H](CC(C)C)C(N)=O)C(C)C)C(C)C)[C@@H](C)O) [Peptide 32] | 0.076 | 0.148 | – |
| HSXGIFTXAYSRYRKQLAVKKYLAAVL (N-terminal mesyl (Ms-); Tz (aspartic acid with carboxyl group replaced by tetrazole) at positions 3 and 8; C-terminal amide (NH2)) [Peptide 29] | 0.09 | 0.025 | – |
| HSXAIFTXSYSRYRKQLAVKKYLAAVL (N-terminal mesyl (Ms-); Tz (aspartic acid with carboxyl group replaced by tetrazole) at positions 3 and 8; C-terminal amide (NH2)) [Peptide 30] | 0.057 | 0.032 | – |
| Ms-HS[Ala(1H-tetrazol-5-yl)]AIFT[Ala(1H-tetrazol-5-yl)]SYSRYRKQAAVKKYLAAVL-NH2 (SMILES CC[C@H](C)[C@H](NC(=O)[C@H](C)NC(=O)[C@H](Cc1nnn[nH]1)NC(=O)[C@H](CO)NC(=O)[C@H](Cc1c[nH]cn1)NS(C)(=O)=O)C(=O)N[C@@H](Cc1ccccc1)C(=O)N[C@H](C(=O)N[C@@H](Cc1nnn[nH]1)C(=O)N[C@@H](CO)C(=O)N[C@@H](Cc1ccc(O)cc1)C(=O)N[C@@H](CO)C(=O)N[C@@H](CCCNC(=N)N)C(=O)N[C@@H](Cc1ccc(O)cc1)C(=O)N[C@@H](CCCNC(=N)N)C(=O)N[C@@H](CCCCN)C(=O)N[C@@H](CCC(N)=O)C(=O)N[C@@H](C)C(=O)N[C@@H](C)C(=O)N[C@H](C(=O)N[C@@H](CCCCN)C(=O)N[C@@H](CCCCN)C(=O)N[C@@H](Cc1ccc(O)cc1)C(=O)N[C@@H](CC(C)C)C(=O)N[C@@H](C)C(=O)N[C@@H](C)C(=O)N[C@H](C(=O)N[C@@H](CC(C)C)C(N)=O)C(C)C)C(C)C)[C@@H](C)O) [Peptide 31] | 0.035 | 0.034 | – |
| Ac-HA[Ala(1H-tetrazol-5-yl)]AIFT[Ala(1H-tetrazol-5-yl)]SYSRYRKQAAVKKYLAAVL-NH2 (SMILES CC[C@H](C)[C@H](NC(=O)[C@H](C)NC(=O)[C@H](Cc1nnn[nH]1)NC(=O)[C@H](C)NC(=O)[C@H](Cc1c[nH]cn1)NC(C)=O)C(=O)N[C@@H](Cc1ccccc1)C(=O)N[C@H](C(=O)N[C@@H](Cc1nnn[nH]1)C(=O)N[C@@H](CO)C(=O)N[C@@H](Cc1ccc(O)cc1)C(=O)N[C@@H](CO)C(=O)N[C@@H](CCCNC(=N)N)C(=O)N[C@@H](Cc1ccc(O)cc1)C(=O)N[C@@H](CCCNC(=N)N)C(=O)N[C@@H](CCCCN)C(=O)N[C@@H](CCC(N)=O)C(=O)N[C@@H](C)C(=O)N[C@@H](C)C(=O)N[C@H](C(=O)N[C@@H](CCCCN)C(=O)N[C@@H](CCCCN)C(=O)N[C@@H](Cc1ccc(O)cc1)C(=O)N[C@@H](CC(C)C)C(=O)N[C@@H](C)C(=O)N[C@@H](C)C(=O)N[C@H](C(=O)N[C@@H](CC(C)C)C(N)=O)C(C)C)C(C)C)[C@@H](C)O) [Peptide 33] | 0.143 | 0.089 | – |
